Measurements as given in PMC9795039, “Kindlin2 enables EphB/ephrinB bi-directional signaling to support vascular development” (Life Science Alliance, 2022).
Where a chain is given by its changes, count along the chain named. Names and notes keep the numbering of the source.

B1: his/Avi-tagged cytoplasmic tail of ephrinB2 WT (domain or fragment, UniProt P52799 251-333, looked up)
chain: KYRRRHRKHSPQHTTTLSLSTLATPKRSGNNNGSEPSDIIIPLRTADSVFCPHYEKVSGDYGHPVYIVQEMPPQSPANIYYKV
modifications: biotinylated
notes: ephrinB2 cytoplasmic tail; Vector (his/Avi-tagged in pET15) and purification after Pfaff et al, 1998; The forward primer printed for the 4A construct reads KYRRR after the HindIII site, which may mark the start of the tail; also called ephrinB2 WT tail; ephrinB2 cytoplasmic tail; source: Escherichia coli (DE3), purified
B2: his/Avi-tagged cytoplasmic tail of ephrinB2 2A (domain or fragment, UniProt P52799 251-333, looked up)
chain: B1 chain with N78A, Y81A
modifications: biotinylated
notes: ephrinB2 cytoplasmic tail with N328A and Y331A; also called double point mutation (N328A and Y331A); source: Escherichia coli (DE3), purified
B3: his/Avi-tagged cytoplasmic tail of ephrinB2 N328A (domain or fragment, UniProt P52799 251-333, looked up)
chain: B1 chain with N78A
modifications: biotinylated
notes: ephrinB2 cytoplasmic tail with N328A; source: Escherichia coli (DE3), purified
B4: his/Avi-tagged cytoplasmic tail of ephrinB2 Y331A (domain or fragment, UniProt P52799 251-333, looked up)
chain: B1 chain with Y81A
modifications: biotinylated
notes: ephrinB2 cytoplasmic tail with Y331A; source: Escherichia coli (DE3), purified
B5: his/Avi-tagged cytoplasmic tail of ephrinB2 S325A (domain or fragment, UniProt P52799 251-333, looked up)
chain: B1 chain with S75A
modifications: biotinylated
notes: ephrinB2 cytoplasmic tail with S325A; source: Escherichia coli (DE3), purified

target: T1, his-tagged human full-length kindlin2 (human, UniProt Q96AC1 1-680); experiment: pull-down; in vitro binding assay: purified kindlin2 mixed with purified cytoplasmic tails immobilised on NeutrAvidin beads; Western blot with anti-kindlin2 antibody; settings: both partners purified
T1 construct: human full-length kindlin2 in gWIZ vector; also called purified kindlin2; recombinant kindlin2; source: Expi293F cells, purified
T1 sequence (looked up): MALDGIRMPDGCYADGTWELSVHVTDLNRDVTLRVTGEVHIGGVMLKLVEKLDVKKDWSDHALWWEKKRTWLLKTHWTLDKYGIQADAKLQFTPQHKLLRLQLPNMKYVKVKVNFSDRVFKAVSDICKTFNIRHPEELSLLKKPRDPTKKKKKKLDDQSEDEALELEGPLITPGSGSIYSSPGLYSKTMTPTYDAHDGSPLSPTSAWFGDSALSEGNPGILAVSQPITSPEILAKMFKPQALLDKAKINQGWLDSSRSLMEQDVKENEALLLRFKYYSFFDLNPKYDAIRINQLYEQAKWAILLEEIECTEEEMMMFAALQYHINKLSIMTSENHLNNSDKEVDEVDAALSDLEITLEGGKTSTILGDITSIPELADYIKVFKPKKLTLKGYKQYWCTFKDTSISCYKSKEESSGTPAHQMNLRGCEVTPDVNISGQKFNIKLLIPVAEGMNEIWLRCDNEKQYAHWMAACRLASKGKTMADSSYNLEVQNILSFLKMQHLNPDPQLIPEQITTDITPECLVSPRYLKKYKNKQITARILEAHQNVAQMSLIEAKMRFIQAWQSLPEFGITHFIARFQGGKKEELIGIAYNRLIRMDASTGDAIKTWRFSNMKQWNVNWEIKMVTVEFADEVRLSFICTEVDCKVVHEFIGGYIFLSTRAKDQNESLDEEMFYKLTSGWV

Binding result, binds:
B1
B2
B3
B4
B5
